Assay results from PMC6045628 (Scientific Reports, 2018).

Experiments:
[1] = target: Influenza A virus hemagglutinin fused to mEGFP (HA-wt-mEGFP) (Influenza A virus)
[2] = target: the molecule itself; test: Number&Brightness analysis (fluorescence fluctuation spectroscopy, molecular brightness); living U2OS cells expressing the mEGFP fusion; brightness normalised to 1xmEGFP and corrected for non-fluorescent mEGFP with pf = 0.72 from 2xmEGFP

Molecule: Influenza A virus hemagglutinin fused to mEGFP (HA-wt-mEGFP) (natural protein)
- stoichiometry N [1]: 3.17

B1: E. coli glutamine synthetase fused to mEGFP (GlnA-mEGFP) (enzyme, UniProt P0A9C5 1-469, looked up)
chain: MSAEHVLTMLNEHEVKFVDLRFTDTKGKEQHVTIPAHQVNAEFFEEGKMFDGSSIGGWKGINESDMVLMPDASTAVIDPFFADSTLIIRCDILEPGTLQGYDRDPRSIAKRAEDYLRSTGIADTVLFGPEPEFFLFDDIRFGSSISGSHVAIDDIEGAWNSSTQYEGGNKGHRPAVKGGYFPVPPVDSAQDIRSEMCLVMEQMGLVVEAHHHEVATAGQNEVATRFNTMTKKADEIQIYKYVVHNVAHRFGKTATFMPKPMFGDNGSGMHCHMSLSKNGVNLFAGDKYAGLSEQALYYIGGVIKHAKAINALANPTTNSYKRLVPGYEAPVMLAYSARNRSASIRIPVVSSPKARRIEVRFPDPAANPYLCFAALLMAGLDGIKNKIHPGEAMDKNLYDLPPEEAKEIPQVAGSLEEALNELDLDREFLKAGGVFTDEAIDAYIALRREEDDRVRMTPHPVEFELYYSV
notes: also called GlnA complex; copies: 12
- stoichiometry N [2]: 11.9
